Assay results from patent publication US20110020802, “NUCLEIC ACIDS, METHODS AND KITS FOR THE DIAGNOSIS OF DYT6 PRIMARY TORSION DYSTONIA” (Mount Sinai School of Medicine of New York University, published 2011).

Target: T1, THAP1 wild type (Homo sapiens, UniProt Q9NVV9 SEQ:1-213)
T1 sequence: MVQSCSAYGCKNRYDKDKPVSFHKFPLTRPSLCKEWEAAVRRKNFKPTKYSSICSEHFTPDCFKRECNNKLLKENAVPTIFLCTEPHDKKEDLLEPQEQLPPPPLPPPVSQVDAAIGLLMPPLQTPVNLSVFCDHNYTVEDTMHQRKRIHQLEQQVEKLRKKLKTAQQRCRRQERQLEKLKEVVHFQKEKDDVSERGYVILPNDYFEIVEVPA
Experiment: EMSA; specific band supershifted by anti-THAP1 and competed by >200x unlabeled THABS; 150 mM KCl, 20 mM Tris pH 7.5, poly(dI-dC), room temperature
Details: tags: N-terminal V5 (pcDNA3.1/nV5); label: 5'-32P
Procedure: Double-stranded oligonucleotide was prepared by annealing synthetic complementary oligonucleotides (5′-[…]-3′ (SEQ ID NO: 17) and the reverse complement of this oligo 5′ […]-3′ (SEQ ID NO: 48)) in 20 mM Tris/HCl (pH 7.5), 10 mM MgCl2, 50 mM NaCl, 1 mM dithiothreitol (DTT) by heating for 5 min at 95° c, and cooling to room temperature overnight. Probes were end-labeled with [gamma-³²P]ATP using T4 polynucleotide kinase. Unincorporated nucleotides were removed by column chromatography (illustra MicroSpin™ G-25 Columns, GE Healthcare), according to the manufacturer's protocol. […] Following buffer at 150 V at room temperature, gels were dried and exposed to storage Phosphor screens that were scanned and analyzed using a Typhoon phosphorimager (GE Healthcare).
The two constructs were expressed in an in vitro transcription/translation (IVTT) system and assessed by western for equal levels of protein expression (FIG. 4A). When the radiolabeled THABS probe was incubated with the IVTT wild-type THAP1, a major shifted band was detected (FIG. 4B, lane 6, arrowhead). […]

B1: THABS probe (dsDNA)
DNA 1: AGCAAGTAAGGGCAACTACTTCAT
DNA 2: ATGAAGTAGTTGCCCTTACTTGCT
B1: binds.
